From the supplement of paper PMC9112550, “Optimization of the antimicrobial peptide Bac7 by deep mutational scanning” (BMC Biology, 2022)

system: Escherichia coli TOP10; test: shrunken log2 fold change of peptide-encoding DNA abundance (4.5 h post-induction vs induction); higher = less antimicrobial activity (less host growth inhibition); conditions: time post-induction: 4.5 h; library: site-saturation at positions 5, 18, 19, 20
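Also: peptides expressed intracellularly from a pBAD plasmid library in pooled LB shake-flask culture, induced with 0.3% L-arabinose, DNA abundance read by NGS, three biological replicates, DESeq2 with apeglm shrinkage.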

Row | Sequence | shrunken log2 fold change
1 | RRIRMRPPRLPRPRPRPEMYPRP | 0.216
2 | RRIRHRPPRLPRPRPRPRLYPRP | 0.114
3 | RRIRPRPPRLPRPRPRPARRPRP | 0.374
4 | RRIRKRPPRLPRPRPRPHCFPRP | 0.0684
5 | RRIRPRPPRLPRPRPRPAALPRP | 0.248
6 | RRIRARPPRLPRPRPRPIFFPRP | 0.388
7 | RRIRFRPPRLPRPRPRPKINPRP | -0.385
8 | RRIRPRPPRLPRPRPRPGNLPRP | -0.376
9 | RRIRTRPPRLPRPRPRPSAAPRP | 0.186
10 | RRIRARPPRLPRPRPRPERYPRP | 0.0113
11 | RRIRERPPRLPRPRPRPGMNPRP | -0.308
12 | RRIRFRPPRLPRPRPRPARIPRP | -0.0549
13 | RRIRTRPPRLPRPRPRPRNWPRP | 0.325
14 | RRIRLRPPRLPRPRPRPGMCPRP | -0.0891
15 | RRIRGRPPRLPRPRPRPQWCPRP | 0.216
16 | RRIRIRPPRLPRPRPRPDSPPRP | -0.0466
17 | RRIRIRPPRLPRPRPRPMFYPRP | -1.25
18 | RRIRQRPPRLPRPRPRPCDLPRP | -0.265
19 | RRIRPRPPRLPRPRPRPPPTPRP | 0.761
20 | RRIRDRPPRLPRPRPRPEWTPRP | 0.147
21 | RRIRSRPPRLPRPRPRPEKDPRP | 0.124
22 | RRIRWRPPRLPRPRPRPTSNPRP | -0.0919
23 | RRIRPRPPRLPRPRPRPHWKPRP | -0.131
24 | RRIRQRPPRLPRPRPRPNHHPRP | -0.864
25 | RRIRSRPPRLPRPRPRPKASPRP | -0.0199

Row | Sequence | shrunken log2 fold change
26 | RRIRYRPPRLPRPRPRPQGIPRP | -0.236
27 | RRIRGRPPRLPRPRPRPDNMPRP | -0.185
28 | RRIRLRPPRLPRPRPRPAKAPRP | 0.271
29 | RRIRLRPPRLPRPRPRPEAYPRP | 0.0406
30 | RRIRIRPPRLPRPRPRPPDYPRP | -0.0646
31 | RRIRERPPRLPRPRPRPKNLPRP | 0.072
32 | RRIRFRPPRLPRPRPRPEKDPRP | -0.227
33 | RRIRQRPPRLPRPRPRPWTPPRP | -0.061
34 | RRIRPRPPRLPRPRPRPCPLPRP | -0.208
35 | RRIRNRPPRLPRPRPRPEACPRP | 0.0475
36 | RRIRCRPPRLPRPRPRPFEVPRP | -0.152
37 | RRIRFRPPRLPRPRPRPHQNPRP | -0.182
38 | RRIRYRPPRLPRPRPRPGTDPRP | -0.0254
39 | RRIRCRPPRLPRPRPRPDTSPRP | -0.365
40 | RRIRQRPPRLPRPRPRPKVPPRP | 0.105
41 | RRIRFRPPRLPRPRPRPNETPRP | -0.0424
42 | RRIRPRPPRLPRPRPRPYCFPRP | -0.655
43 | RRIRCRPPRLPRPRPRPRIRPRP | 0.0722
44 | RRIRWRPPRLPRPRPRPHHEPRP | -0.262
45 | RRIRVRPPRLPRPRPRPCIPPRP | -0.467
46 | RRIRNRPPRLPRPRPRPDHQPRP | 0.113
47 | RRIRRRPPRLPRPRPRPFDKPRP | 0.0721
48 | RRIRVRPPRLPRPRPRPHHKPRP | -0.477
49 | RRIRVRPPRLPRPRPRPEQDPRP | 0.173
50 | RRIRKRPPRLPRPRPRPIGNPRP | 0.0844

Row | Sequence | shrunken log2 fold change
51 | RRIRKRPPRLPRPRPRPFCSPRP | -0.00787
52 | RRIRPRPPRLPRPRPRPMMNPRP | 0.03
53 | RRIRWRPPRLPRPRPRPYHLPRP | -0.146
54 | RRIRPRPPRLPRPRPRPIRRPRP | -0.0359
55 | RRIRTRPPRLPRPRPRPVVIPRP | 1.29
56 | RRIRTRPPRLPRPRPRPTPEPRP | 0.08
57 | RRIRVRPPRLPRPRPRPSNKPRP | -0.751
58 | RRIRQRPPRLPRPRPRPDEYPRP | 0.0131
59 | RRIRARPPRLPRPRPRPEFYPRP | 0.329
60 | RRIRARPPRLPRPRPRPAVIPRP | -0.178
61 | RRIRIRPPRLPRPRPRPRMQPRP | -0.199
62 | RRIRGRPPRLPRPRPRPACMPRP | 0.671
63 | RRIRPRPPRLPRPRPRPYKNPRP | -0.775
64 | RRIRMRPPRLPRPRPRPMDGPRP | 0.418
65 | RRIRRRPPRLPRPRPRPMWIPRP | -0.137
66 | RRIRPRPPRLPRPRPRPCNKPRP | -0.102
67 | RRIRNRPPRLPRPRPRPGEIPRP | 0.627
68 | RRIRKRPPRLPRPRPRPVNEPRP | -0.00608
69 | RRIRDRPPRLPRPRPRPMMQPRP | 0.0408
70 | RRIRTRPPRLPRPRPRPHCAPRP | -0.0401
71 | RRIRKRPPRLPRPRPRPPGEPRP | 0.617
72 | RRIRIRPPRLPRPRPRPTARPRP | 0.0575
73 | RRIRIRPPRLPRPRPRPQTNPRP | -0.423
74 | RRIRMRPPRLPRPRPRPWTEPRP | 0.0475
75 | RRIRERPPRLPRPRPRPNKKPRP | -0.187

Row | Sequence | shrunken log2 fold change
76 | RRIRQRPPRLPRPRPRPSSNPRP | -0.222
77 | RRIRSRPPRLPRPRPRPVSNPRP | -0.0276
78 | RRIRMRPPRLPRPRPRPCGIPRP | -0.0517
79 | RRIRYRPPRLPRPRPRPEHPPRP | -0.143
80 | RRIRNRPPRLPRPRPRPWWYPRP | -0.361
81 | RRIRVRPPRLPRPRPRPTWMPRP | 0.0438
82 | RRIRNRPPRLPRPRPRPCKSPRP | -0.0291
83 | RRIRARPPRLPRPRPRPRCMPRP | 1.62
84 | RRIRNRPPRLPRPRPRPAIQPRP | -0.0231
85 | RRIRWRPPRLPRPRPRPTSKPRP | -0.0975
86 | RRIRRRPPRLPRPRPRPRSKPRP | 0.29
87 | RRIRYRPPRLPRPRPRPRLKPRP | 3.7
88 | RRIRFRPPRLPRPRPRPYHEPRP | -0.26
89 | RRIRIRPPRLPRPRPRPVQEPRP | 0.00511
90 | RRIRDRPPRLPRPRPRPTPVPRP | 0.405
91 | RRIRNRPPRLPRPRPRPIKCPRP | -0.0141
92 | RRIRARPPRLPRPRPRPIGIPRP | 0.0254
93 | RRIRNRPPRLPRPRPRPIRHPRP | -0.0817
94 | RRIRDRPPRLPRPRPRPYDYPRP | -0.097
95 | RRIRDRPPRLPRPRPRPLQWPRP | 0.219
96 | RRIRYRPPRLPRPRPRPVENPRP | -0.0898
97 | RRIRGRPPRLPRPRPRPRYDPRP | -0.057
98 | RRIRARPPRLPRPRPRPTFTPRP | 0.51
99 | RRIRRRPPRLPRPRPRPPNHPRP | 0.234
100 | RRIRGRPPRLPRPRPRPWELPRP | 0.136

Row | Sequence | shrunken log2 fold change
101 | RRIRVRPPRLPRPRPRPLFLPRP | -0.417
102 | RRIRYRPPRLPRPRPRPDVGPRP | -0.273
103 | RRIRERPPRLPRPRPRPQERPRP | 0.061
104 | RRIRWRPPRLPRPRPRPEVSPRP | 0.269
105 | RRIRYRPPRLPRPRPRPPTPPRP | 0.104
106 | RRIRKRPPRLPRPRPRPMAHPRP | -0.000911
107 | RRIRRRPPRLPRPRPRPPIFPRP | 0.16
108 | RRIRHRPPRLPRPRPRPQTCPRP | -0.653
109 | RRIRRRPPRLPRPRPRPLYMPRP | -0.15
110 | RRIRSRPPRLPRPRPRPYHMPRP | -1.26
111 | RRIRNRPPRLPRPRPRPGREPRP | 0.588
112 | RRIRLRPPRLPRPRPRPREHPRP | 0.204
113 | RRIRKRPPRLPRPRPRPYIFPRP | -0.129
114 | RRIRTRPPRLPRPRPRPDPCPRP | 0.0297
115 | RRIRRRPPRLPRPRPRPAEDPRP | 0.987
116 | RRIRFRPPRLPRPRPRPFQWPRP | -0.507
117 | RRIRYRPPRLPRPRPRPPNVPRP | 0.0158
118 | RRIRGRPPRLPRPRPRPDWYPRP | 0.134
119 | RRIRIRPPRLPRPRPRPSFRPRP | -0.671
120 | RRIRFRPPRLPRPRPRPWTLPRP | -0.259
121 | RRIRMRPPRLPRPRPRPSGFPRP | 0.411
122 | RRIRKRPPRLPRPRPRPCRNPRP | -0.0611
123 | RRIRMRPPRLPRPRPRPPSLPRP | 0.619
124 | RRIRLRPPRLPRPRPRPSHQPRP | -0.231
125 | RRIRVRPPRLPRPRPRPSSWPRP | -0.062

Row | Sequence | shrunken log2 fold change
126 | RRIRARPPRLPRPRPRPAEMPRP | -0.0298
127 | RRIRVRPPRLPRPRPRPMIKPRP | -0.156
128 | RRIRQRPPRLPRPRPRPIDIPRP | 0.107
129 | RRIRWRPPRLPRPRPRPCPEPRP | 0.0311
130 | RRIRSRPPRLPRPRPRPTQKPRP | 0.375
131 | RRIRKRPPRLPRPRPRPVHSPRP | 0.034
132 | RRIRVRPPRLPRPRPRPIGCPRP | -0.0514
133 | RRIRGRPPRLPRPRPRPVQDPRP | 0.197
134 | RRIRSRPPRLPRPRPRPPMQPRP | 0.268
135 | RRIRRRPPRLPRPRPRPDGNPRP | 0.0694
136 | RRIRNRPPRLPRPRPRPKKKPRP | 0.011
137 | RRIRNRPPRLPRPRPRPPMAPRP | 0.361
138 | RRIRSRPPRLPRPRPRPMLDPRP | -0.291
139 | RRIRLRPPRLPRPRPRPQCLPRP | -0.455
140 | RRIRTRPPRLPRPRPRPVWGPRP | 0.368
141 | RRIRTRPPRLPRPRPRPMSCPRP | -0.181
142 | RRIRDRPPRLPRPRPRPFIQPRP | -0.238
143 | RRIRHRPPRLPRPRPRPDLHPRP | -0.0566
144 | RRIRLRPPRLPRPRPRPEESPRP | 0.012
145 | RRIRKRPPRLPRPRPRPPYVPRP | 0.0388
146 | RRIRTRPPRLPRPRPRPTWKPRP | 0.0204
147 | RRIRDRPPRLPRPRPRPAWWPRP | 0.388
148 | RRIRTRPPRLPRPRPRPVINPRP | -0.189
149 | RRIRQRPPRLPRPRPRPKDSPRP | -0.135
150 | RRIRSRPPRLPRPRPRPFCSPRP | -0.212
